According to PMC6791870, “Switch of the interactions between the ribosomal stalk and EF1A in the GTP- and GDP-bound conformations” (Scientific Reports, 2019):
Primed or numbered codes have the meaning given here. Where no end group is shown, it is not given here. FITC′ = fluorescein isothiocyanate label

Columns and labels:
Assay in all cases: fluorescence polarisation; FITC-labeled PhoP1C14 peptide (50 nM) mixed with 0-160 µM of the complex of each PhoEF1A mutant, GTP and PfuPelota; 20 mM HEPES-KOH pH 7.6, 10 mM MgCl2, 150 mM KCl, 0.1 mg/ml BSA; 25 °C; nonlinear regression, one site specific binding (GraphPad Prism 6); average of three replicates
Settings in all cases: both partners purified
[1] = target: T1, PhoEF1A R406A•GTP•PfuPelota complex (Pyrococcus horikoshii | Pyrococcus …, UniProt O59153 1-428, R406A)
T1 construct: elongation factor aEF1A of Pyrococcus horikoshii (PhoEF1A); complex of the EF1A mutant, GTP and PfuPelota; also called R406(R409)A; P. horikoshii aEF1A-R406A
T1 sequence 1: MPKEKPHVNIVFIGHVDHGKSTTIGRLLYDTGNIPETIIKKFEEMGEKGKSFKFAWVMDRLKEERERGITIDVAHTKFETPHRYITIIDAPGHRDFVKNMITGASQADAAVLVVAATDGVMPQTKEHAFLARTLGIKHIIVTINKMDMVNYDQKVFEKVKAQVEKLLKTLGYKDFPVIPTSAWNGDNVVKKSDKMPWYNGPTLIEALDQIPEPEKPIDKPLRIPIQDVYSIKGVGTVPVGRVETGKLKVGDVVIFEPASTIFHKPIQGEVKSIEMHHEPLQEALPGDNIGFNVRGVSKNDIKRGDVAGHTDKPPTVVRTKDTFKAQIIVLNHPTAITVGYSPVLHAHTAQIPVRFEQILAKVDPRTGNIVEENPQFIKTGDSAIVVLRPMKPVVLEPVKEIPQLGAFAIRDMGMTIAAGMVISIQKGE
T1 sequence 2: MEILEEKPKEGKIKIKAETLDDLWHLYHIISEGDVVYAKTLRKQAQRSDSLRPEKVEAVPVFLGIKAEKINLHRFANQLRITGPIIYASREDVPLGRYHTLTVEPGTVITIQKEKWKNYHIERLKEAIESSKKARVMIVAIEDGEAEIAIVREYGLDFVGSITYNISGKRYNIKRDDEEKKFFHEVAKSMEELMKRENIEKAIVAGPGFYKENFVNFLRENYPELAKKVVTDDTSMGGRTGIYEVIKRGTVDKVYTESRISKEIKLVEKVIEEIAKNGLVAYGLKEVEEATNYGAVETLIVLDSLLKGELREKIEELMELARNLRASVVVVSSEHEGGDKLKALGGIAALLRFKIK

[2] = target: T2, PhoEF1A Q326A•GTP•PfuPelota complex (Pyrococcus horikoshii | Pyrococcus …, UniProt O59153 1-428, Q326A)
T2 construct: elongation factor aEF1A of Pyrococcus horikoshii (PhoEF1A); complex of the EF1A mutant, GTP and PfuPelota; also called Q326(R329)A; P. horikoshii aEF1A-Q326A
T2 sequence 1: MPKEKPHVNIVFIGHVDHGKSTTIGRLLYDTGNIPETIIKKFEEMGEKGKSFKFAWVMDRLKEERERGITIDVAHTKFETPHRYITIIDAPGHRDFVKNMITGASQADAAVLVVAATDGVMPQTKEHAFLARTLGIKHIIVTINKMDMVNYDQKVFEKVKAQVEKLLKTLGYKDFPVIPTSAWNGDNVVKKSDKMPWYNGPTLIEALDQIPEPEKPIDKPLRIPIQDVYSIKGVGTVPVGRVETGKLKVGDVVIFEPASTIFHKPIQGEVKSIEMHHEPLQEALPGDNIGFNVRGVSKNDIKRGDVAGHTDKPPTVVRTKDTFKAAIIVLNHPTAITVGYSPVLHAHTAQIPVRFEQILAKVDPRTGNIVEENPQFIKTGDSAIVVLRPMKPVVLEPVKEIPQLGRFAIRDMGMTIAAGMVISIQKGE
T2 sequence 2: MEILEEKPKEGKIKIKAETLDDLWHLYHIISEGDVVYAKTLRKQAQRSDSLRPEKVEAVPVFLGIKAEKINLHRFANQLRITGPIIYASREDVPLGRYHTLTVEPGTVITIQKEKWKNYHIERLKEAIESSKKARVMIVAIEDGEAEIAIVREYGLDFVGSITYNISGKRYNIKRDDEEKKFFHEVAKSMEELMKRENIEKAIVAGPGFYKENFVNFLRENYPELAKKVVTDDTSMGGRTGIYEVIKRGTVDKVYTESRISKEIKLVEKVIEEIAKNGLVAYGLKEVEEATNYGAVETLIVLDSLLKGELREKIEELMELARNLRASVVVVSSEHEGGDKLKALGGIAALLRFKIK

[3] = target: T3, PhoEF1A V398S•GTP•PfuPelota complex (Pyrococcus horikoshii | Pyrococcus …, UniProt O59153 1-428, V398S)
T3 construct: elongation factor aEF1A of Pyrococcus horikoshii (PhoEF1A); complex of the EF1A mutant, GTP and PfuPelota; also called V398(F401)S; P. horikoshii aEF1A-V398S
T3 sequence 1: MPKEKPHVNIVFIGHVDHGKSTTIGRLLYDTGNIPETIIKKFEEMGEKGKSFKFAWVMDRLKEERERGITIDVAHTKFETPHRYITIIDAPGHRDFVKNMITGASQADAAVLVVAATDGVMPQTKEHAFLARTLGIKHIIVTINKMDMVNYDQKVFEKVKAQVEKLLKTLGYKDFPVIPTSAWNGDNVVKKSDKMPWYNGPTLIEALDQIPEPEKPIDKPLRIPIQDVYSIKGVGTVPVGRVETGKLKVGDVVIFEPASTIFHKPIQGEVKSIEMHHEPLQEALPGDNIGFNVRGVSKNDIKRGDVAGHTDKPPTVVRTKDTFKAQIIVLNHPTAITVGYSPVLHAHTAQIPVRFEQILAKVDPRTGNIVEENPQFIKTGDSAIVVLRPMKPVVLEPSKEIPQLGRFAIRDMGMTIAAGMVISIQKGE
T3 sequence 2: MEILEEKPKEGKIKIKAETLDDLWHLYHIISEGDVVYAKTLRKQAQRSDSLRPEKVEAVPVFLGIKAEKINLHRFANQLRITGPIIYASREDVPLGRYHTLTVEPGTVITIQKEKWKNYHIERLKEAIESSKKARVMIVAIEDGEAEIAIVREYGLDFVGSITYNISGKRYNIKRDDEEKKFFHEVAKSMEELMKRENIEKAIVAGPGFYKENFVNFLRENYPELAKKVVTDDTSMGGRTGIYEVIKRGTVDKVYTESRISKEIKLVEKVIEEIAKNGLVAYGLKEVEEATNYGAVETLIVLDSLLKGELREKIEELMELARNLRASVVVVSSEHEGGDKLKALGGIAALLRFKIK

B1: FITC-labeled C-terminal 14-mer peptide of P. horikoshii aP1 (PhoP1C14) (peptide)
peptide: {FITC′}-SEEEALAGLSALFG
notes: also called FITC-labeled peptide of PhoP1C14; source: synthetic peptide (Hokkaido System Science Co., Ltd)
A Kd [1] of 33 ± 2.1 µM, a Kd [2] of 11.1 ± 0.8 µM and a Kd [3] of 38.3 ± 2.8 µM were found for B1 in this work.
